The results in this text go back to the supplement of paper PMC12783771.

B1: library; numbered along this chain (parent)
chain: MNIQIGELAKRTACPVVTIRFYEQEGLLPPPGRSRGNFRLYGEEHVERLQFIRHCRSLDMPLSDVRTLLSYRKRPDQDCGEVNMLLDEHIRQVESRIGALLELKHHLVELREACSGARPAQSCGILQGLSDCVCDTRGTTAHPSD

Variants of B1 are the subject of series [1]. Briefly: sfGFP reporter fluorescence (15 h) (µM FITC); higher = higher leak. Conditions: library round: Round 0; ligand: none. The method in brief:
(§1)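 Linear PbrR templates were made by PCR, normalized to 5 nM with an Echo, and expressed in BL21 Star (DE3) PANOx-SP extract with the pPbrR-sfGFP reporter plasmid and 30 μg/mL GamS. Echo-assembled 1 μL reactions held 1 µM lead chloride, 30 µM zinc acetate or no metal and were incubated 15 hr at 30 °C. Endpoint sfGFP fluorescence was read on a Synergy Neo2 and expressed as µM FITC using standard curves. Up to three biological replicates were run.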

Series [2] covers variants of B1. Briefly: sfGFP reporter fluorescence (15 h) (µM FITC); higher = stronger transcriptional activation. Conditions: library round: Round 0. The method in brief:
as §1

± gives the standard deviation of the averaged measurements.

Take Y41F: the sfGFP reporter fluorescence in series [1] came to 0.0572 ± 0.0031; in series [2] (ligand: 1 µM Pb), 0.1001 ± 0.00052; in series [2] (ligand: 30 µM Zn), 1.19 ± 0.041.
The like results for Y41I were, in that order, 0.0575 ± 0.0015, 0.0572 ± 0.0021 and 0.0623 ± 0.0031.
The like results for Y41V were, in that order, 0.059 ± 0.001, 0.05974 ± 0.00052 and 0.0687 ± 0.0013.
The like results for Y41D were, in that order, 0.0601 ± 0.001, 0.0607 ± 0.00078 and 0.0621 ± 0.0023.
Turning to Y41T, the sfGFP reporter fluorescence came to 0.0597 ± 0.0026 in series [1], 0.05974 ± 0.00052 in series [2] (ligand: 1 µM Pb) and 0.0592 ± 0.0039 in series [2] (ligand: 30 µM Zn).
The like results for Y41G were, in that order, 0.0563 ± 0.00078, 0.0564 ± 0.001 and 0.0579 ± 0.0026.
For Y41A, the sfGFP reporter fluorescence in series [1] turned out to be 0.0616 ± 0.0042; in series [2] (ligand: 1 µM Pb), 0.0605; in series [2] (ligand: 30 µM Zn), 0.0651 ± 0.0013.
Turning to Y41H, the sfGFP reporter fluorescence was determined as 0.0599 ± 0.0029 in series [1], 0.0618 ± 0.0023 in series [2] (ligand: 1 µM Pb) and 0.0678 ± 0.0026 in series [2] (ligand: 30 µM Zn).
The like results for Y41K were, in that order, 0.06047 ± 0.00052, 0.061 ± 0.0029 and 0.0621 ± 0.0018.
Turning to M60L P61N D64K L107C, the sfGFP reporter fluorescence in series [1] was determined as 3.0399 ± 0.0023; in series [2] (ligand: 1 µM Pb), 4.3 ± 0.33; in series [2] (ligand: 30 µM Zn) it was 4.24 ± 0.28.
The like results for M60L P61N K104V G128M were, in that order, 0.547 ± 0.013, 1.69 ± 0.41 and 3.84 ± 0.1.
The like results for M60L P61N K104V G128I were, in that order, 0.148 ± 0.0083, 0.448 ± 0.098 and 1.76 ± 0.23.
The like results for M60L P61N D64K were, in that order, 0.611 ± 0.025, 1.74 ± 0.19 and 3.74 ± 0.11.
With M60L P61N L107C G128M, the values for the sfGFP reporter fluorescence in series [1], in series [2] (ligand: 1 µM Pb) and in series [2] (ligand: 30 µM Zn) were 3.38 ± 0.74, 4.14 ± 0.57 and 5.5 ± 0.2, respectively.
Take M60L P61N L107C G128I: the sfGFP reporter fluorescence is 1.87 ± 0.42 in series [1], 3.58 ± 0.081 in series [2] (ligand: 1 µM Pb) and 4.97 ± 0.23 in series [2] (ligand: 30 µM Zn).
The like results for G42A were, in that order, 0.06212 ± 0.00026, 0.0737 ± 0.0021 and 0.482 ± 0.034.
As to V46C, the values for the sfGFP reporter fluorescence in series [1], in series [2] (ligand: 1 µM Pb) and in series [2] (ligand: 30 µM Zn) were 0.0531 ± 0.0026, 0.0781 ± 0.0021 and 0.574 ± 0.01, respectively.
The like results for V46Q were, in that order, 0.0544 ± 0.0039, 0.0858 ± 0.001 and 0.755 ± 0.052.
The like results for V46I were, in that order, 0.0548 ± 0.006, 0.0711 ± 0.0062 and 0.831 ± 0.17.
Regarding V46S, the sfGFP reporter fluorescence in series [1] amounted to 0.055 ± 0.0021; in series [2] (ligand: 1 µM Pb) it was 0.0687 ± 0.00078; in series [2] (ligand: 30 µM Zn) it was 0.306 ± 0.059.
In the case of V46T, the sfGFP reporter fluorescence came out at 0.057 ± 0.0013 in series [1], 0.07733 ± 0.00052 in series [2] (ligand: 1 µM Pb) and 0.419 ± 0.0078 in series [2] (ligand: 30 µM Zn).
Take V46F: the results for the sfGFP reporter fluorescence in series [1], in series [2] (ligand: 1 µM Pb) and in series [2] (ligand: 30 µM Zn) were 0.05626 ± 0.00026, 0.0814 ± 0.0015 and 0.66 ± 0.074, respectively.
Consider V46R, for which the sfGFP reporter fluorescence in series [1] is 0.0594 ± 0.001; in series [2] (ligand: 1 µM Pb) it was 0.08704 ± 0.00026; in series [2] (ligand: 30 µM Zn) it was 0.75 ± 0.054.
Regarding V46P, the sfGFP reporter fluorescence is 0.0537 ± 0.0023 in series [1], 0.0592 ± 0.0039 in series [2] (ligand: 1 µM Pb) and 0.0641 ± 0.0042 in series [2] (ligand: 30 µM Zn).
The like results for V46W were, in that order, 0.0583 ± 0.0021, 0.0757 ± 0.0034 and 0.429 ± 0.0044.
The like results for V46K were, in that order, 0.0599 ± 0.00078, 0.0922 ± 0.0023 and 0.908 ± 0.097.
The like results for V46Y were, in that order, 0.0588 ± 0.00078, 0.0861 ± 0.0067 and 0.6826 ± 0.0049.
On to V46M, for which the values for the sfGFP reporter fluorescence in series [1], in series [2] (ligand: 1 µM Pb) and in series [2] (ligand: 30 µM Zn) were 0.0563 ± 0.0018, 0.09 ± 0.0075 and 1 ± 0.1, respectively.
The like results for V46G were, in that order, 0.05498 ± 0.00052, 0.059 ± 0.0021 and 0.106 ± 0.013.
As to V46E, the values for the sfGFP reporter fluorescence in series [1], in series [2] (ligand: 1 µM Pb) and in series [2] (ligand: 30 µM Zn) were 0.0579, 0.0806 ± 0.0015 and 0.724 ± 0.053, respectively.
The like results for V46L were, in that order, 0.0542 ± 0.0047, 0.0847 ± 0.015 and 0.811 ± 0.057.
The like results for V46A were, in that order, 0.0619 ± 0.0031, 0.0757 ± 0.0023 and 0.682 ± 0.097.
The like results for V46D were, in that order, 0.0581 ± 0.0034, 0.0612 ± 0.0015 and 0.0735 ± 0.0013.
For the variant V46H, the sfGFP reporter fluorescence in series [1] was 0.0557 ± 0.0015; in series [2] (ligand: 1 µM Pb) it was 0.0738 ± 0.00078; in series [2] (ligand: 30 µM Zn) it was 0.345 ± 0.039.
On to V46N, for which the sfGFP reporter fluorescence in series [1] amounted to 0.0535 ± 0.0021; in series [2] (ligand: 1 µM Pb) it was 0.0665 ± 0.0096; in series [2] (ligand: 30 µM Zn), 0.108 ± 0.0023.
The like results for S57A were, in that order, 0.059 ± 0.0015, 0.0575 ± 0.001 and 0.184 ± 0.011.
M60L P61N D64K K104V: the sfGFP reporter fluorescence was 0.366 ± 0.0044 in series [1], 1.11 ± 0.035 in series [2] (ligand: 1 µM Pb) and 3.03 ± 0.15 in series [2] (ligand: 30 µM Zn).
Consider M60L L107C, for which the sfGFP reporter fluorescence came out at 1.01 ± 0.029 in series [1], 1.43 ± 0.057 in series [2] (ligand: 1 µM Pb) and 3.93 ± 0.055 in series [2] (ligand: 30 µM Zn).
The like results for I52A were, in that order, 0.06341 ± 0.00052, 0.0596 ± 0.0023 and 0.077 ± 0.0015.
Take M60L P61N D64K G128I: the sfGFP reporter fluorescence was 0.944 ± 0.037 in series [1], 3.29 ± 0.078 in series [2] (ligand: 1 µM Pb) and 3.77 ± 0.81 in series [2] (ligand: 30 µM Zn).
The like results for M60L P61N D64K G128M were, in that order, 1.99 ± 0.056, 3.91 ± 0.25 and 4.405 ± 0.006.
The like results for R48A were, in that order, 0.0546 ± 0.0015, 0.0541 ± 0.0023 and 0.3984 ± 0.0031.
On to R56A, for which the figures for the sfGFP reporter fluorescence in series [1], in series [2] (ligand: 1 µM Pb) and in series [2] (ligand: 30 µM Zn) were 0.0616, 0.0616 ± 0.0026 and 0.1308 ± 0.00052, respectively.
Take M60L D64K K104V G128M: the sfGFP reporter fluorescence in series [1] was 3.37 ± 0.19; in series [2] (ligand: 1 µM Pb) it was 4.36 ± 0.31; in series [2] (ligand: 30 µM Zn) it was 3.8 ± 0.24.
The like results for M60L D64K K104V G128I were, in that order, 2.23 ± 0.091, 3.3 ± 0.69 and 4.17 ± 0.28.
